Measured values published in patent US20260242735A1 (UNIVERSIT T BASEL, published 2026).

How the values were obtained:
Experiment in all cases: BLI (Octet R8), avidity format: biotinylated CD33 on streptavidin sensor, Refmab #3 as analyte at 500 nM;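 further: analyte association recorded over 300 s, then dissociation followed for 900 s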
[1] = molecular target: CD33 variant W22E (recombinant, biotinylated) (human, UniProt P20138 18-259, biotinylated with EZ-Link Sulfo-NHS-LC-Biotin (sites not given))
[2] = molecular target: CD33 variant F21I (recombinant, biotinylated) (human, UniProt P20138 22-259, biotinylated with EZ-Link Sulfo-NHS-LC-Biotin (sites not given))
[3] = molecular target: CD33 variant Y50R (recombinant, biotinylated) (human, UniProt P20138 18-259, biotinylated with EZ-Link Sulfo-NHS-LC-Biotin (sites not given))
[4] = molecular target: CD33 variant F21S (recombinant, biotinylated) (human, UniProt P20138 22-259, biotinylated with EZ-Link Sulfo-NHS-LC-Biotin (sites not given))
[5] = molecular target: CD33 variant F44P (recombinant, biotinylated) (human, UniProt P20138 18-259, biotinylated with EZ-Link Sulfo-NHS-LC-Biotin (sites not given))
[6] = molecular target: CD33 variant F21L (recombinant, biotinylated) (human, UniProt P20138 22-259, biotinylated with EZ-Link Sulfo-NHS-LC-Biotin (sites not given))
[7] = molecular target: CD33 variant F21V (recombinant, biotinylated) (human, UniProt P20138 22-259, biotinylated with EZ-Link Sulfo-NHS-LC-Biotin (sites not given))
[8] = molecular target: CD33 variant F21H (recombinant, biotinylated) (human, UniProt P20138 22-259, biotinylated with EZ-Link Sulfo-NHS-LC-Biotin (sites not given))
[9] = molecular target: CD33 variant N20V (recombinant, biotinylated) (human, UniProt P20138 21-259, biotinylated with EZ-Link Sulfo-NHS-LC-Biotin (sites not given))
[10] = molecular target: CD33 variant W22K (recombinant, biotinylated) (human, UniProt P20138 18-259, biotinylated with EZ-Link Sulfo-NHS-LC-Biotin (sites not given))
[11] = molecular target: CD33 variant N20E (recombinant, biotinylated) (human, UniProt P20138 21-259, biotinylated with EZ-Link Sulfo-NHS-LC-Biotin (sites not given))
[12] = molecular target: CD33 variant F21M (recombinant, biotinylated) (human, UniProt P20138 22-259, biotinylated with EZ-Link Sulfo-NHS-LC-Biotin (sites not given))
[13] = molecular target: CD33 variant W22D (recombinant, biotinylated) (human, UniProt P20138 18-259, biotinylated with EZ-Link Sulfo-NHS-LC-Biotin (sites not given))
[14] = molecular target: CD33 double variant Y50H_H49H (recombinant, biotinylated) (human, UniProt P20138 18-259, biotinylated with EZ-Link Sulfo-NHS-LC-Biotin (sites not given))
[15] = molecular target: CD33 variant N20G (recombinant, biotinylated) (human, UniProt P20138 21-259, biotinylated with EZ-Link Sulfo-NHS-LC-Biotin (sites not given))
[16] = molecular target: CD33 variant N20H (recombinant, biotinylated) (human, UniProt P20138 21-259, biotinylated with EZ-Link Sulfo-NHS-LC-Biotin (sites not given))
[17] = molecular target: CD33 variant Y50K (recombinant, biotinylated) (human, UniProt P20138 18-259, biotinylated with EZ-Link Sulfo-NHS-LC-Biotin (sites not given))
[18] = molecular target: CD33 variant W22T (recombinant, biotinylated) (human, UniProt P20138 18-259, biotinylated with EZ-Link Sulfo-NHS-LC-Biotin (sites not given))
[19] = molecular target: T1, CD33 wild type (recombinant, biotinylated) (human, UniProt P20138 18-259, biotinylated with EZ-Link Sulfo-NHS-LC-Biotin (sites not given))
T1 construct: also called WT; CD33 wt

[20] = molecular target: CD33 variant W22R (recombinant, biotinylated) (human, UniProt P20138 18-259, biotinylated with EZ-Link Sulfo-NHS-LC-Biotin (sites not given))
[21] = molecular target: CD33 variant F21N (recombinant, biotinylated) (human, UniProt P20138 22-259, biotinylated with EZ-Link Sulfo-NHS-LC-Biotin (sites not given))
[22] = molecular target: CD33 variant Y50D (recombinant, biotinylated) (human, UniProt P20138 18-259, biotinylated with EZ-Link Sulfo-NHS-LC-Biotin (sites not given))
[23] = molecular target: CD33 variant F21Q (recombinant, biotinylated) (human, UniProt P20138 22-259, biotinylated with EZ-Link Sulfo-NHS-LC-Biotin (sites not given))
[24] = molecular target: CD33 variant N20K (recombinant, biotinylated) (human, UniProt P20138 21-259, biotinylated with EZ-Link Sulfo-NHS-LC-Biotin (sites not given))
Sequence of CD33 variant N20K (recombinant, biotinylated) (P20138 other isoform, or with tags, fused parts or gaps N20K N20K): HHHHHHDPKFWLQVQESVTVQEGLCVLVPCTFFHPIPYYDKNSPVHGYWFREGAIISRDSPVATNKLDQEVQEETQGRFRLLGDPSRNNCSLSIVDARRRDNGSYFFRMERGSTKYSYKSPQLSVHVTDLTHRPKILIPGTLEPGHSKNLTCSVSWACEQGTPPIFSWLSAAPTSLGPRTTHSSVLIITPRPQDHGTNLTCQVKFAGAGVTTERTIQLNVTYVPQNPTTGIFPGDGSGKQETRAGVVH

Sequence of CD33 variant N20H (recombinant, biotinylated) (P20138 other isoform, or with tags, fused parts or gaps N20H N20H): as the sequence (P20138 other isoform, or with tags, fused parts or gaps N20K N20K) above, with K9H counted along it
Sequence of CD33 variant W22E (recombinant, biotinylated) (P20138 other isoform, or with tags, fused parts or gaps W22E W22E): as the sequence (P20138 other isoform, or with tags, fused parts or gaps N20K N20K) above, with K9N, W11E counted along it
Sequence of CD33 variant N20G (recombinant, biotinylated) (P20138 other isoform, or with tags, fused parts or gaps N20G N20G): as the sequence (P20138 other isoform, or with tags, fused parts or gaps N20K N20K) above, with K9G counted along it
Sequence of CD33 variant F21V (recombinant, biotinylated) (P20138 other isoform, or with tags, fused parts or gaps F21V F21V): as the sequence (P20138 other isoform, or with tags, fused parts or gaps N20K N20K) above, with K9N, F10V counted along it
Sequence of CD33 double variant Y50H_H49H (recombinant, biotinylated) (P20138 other isoform, or with tags, fused parts or gaps Y50H H49H Y50H H49H): as the sequence (P20138 other isoform, or with tags, fused parts or gaps N20K N20K) above, with K9N, Y38H, Y39H counted along it
T1 sequence (P20138 other isoform, or with tags, fused parts or gaps): as the sequence (P20138 other isoform, or with tags, fused parts or gaps N20K N20K) above, with K9N counted along it
Sequence of CD33 variant F44P (recombinant, biotinylated) (P20138 other isoform, or with tags, fused parts or gaps F44P F44P): as the sequence (P20138 other isoform, or with tags, fused parts or gaps N20K N20K) above, with K9N, F33P counted along it
Sequence of CD33 variant Y50D (recombinant, biotinylated) (P20138 other isoform, or with tags, fused parts or gaps Y50D Y50D): as the sequence (P20138 other isoform, or with tags, fused parts or gaps N20K N20K) above, with K9N, Y39D counted along it
Sequence of CD33 variant Y50K (recombinant, biotinylated) (P20138 other isoform, or with tags, fused parts or gaps Y50K Y50K): as the sequence (P20138 other isoform, or with tags, fused parts or gaps N20K N20K) above, with K9N, Y39K counted along it
Sequence of CD33 variant F21I (recombinant, biotinylated) (P20138 other isoform, or with tags, fused parts or gaps F21I F21I): as the sequence (P20138 other isoform, or with tags, fused parts or gaps N20K N20K) above, with K9N, F10I counted along it
Sequence of CD33 variant N20V (recombinant, biotinylated) (P20138 other isoform, or with tags, fused parts or gaps N20V N20V): as the sequence (P20138 other isoform, or with tags, fused parts or gaps N20K N20K) above, with K9V counted along it
Sequence of CD33 variant F21L (recombinant, biotinylated) (P20138 other isoform, or with tags, fused parts or gaps F21L F21L): as the sequence (P20138 other isoform, or with tags, fused parts or gaps N20K N20K) above, with K9N, F10L counted along it
Sequence of CD33 variant F21S (recombinant, biotinylated) (P20138 other isoform, or with tags, fused parts or gaps F21S F21S): as the sequence (P20138 other isoform, or with tags, fused parts or gaps N20K N20K) above, with K9N, F10S counted along it
Sequence of CD33 variant F21H (recombinant, biotinylated) (P20138 other isoform, or with tags, fused parts or gaps F21H F21H): as the sequence (P20138 other isoform, or with tags, fused parts or gaps N20K N20K) above, with K9N, F10H counted along it
Sequence of CD33 variant W22K (recombinant, biotinylated) (P20138 other isoform, or with tags, fused parts or gaps W22K W22K): as the sequence (P20138 other isoform, or with tags, fused parts or gaps N20K N20K) above, with K9N, W11K counted along it
Sequence of CD33 variant W22D (recombinant, biotinylated) (P20138 other isoform, or with tags, fused parts or gaps W22D W22D): as the sequence (P20138 other isoform, or with tags, fused parts or gaps N20K N20K) above, with K9N, W11D counted along it
Sequence of CD33 variant F21Q (recombinant, biotinylated) (P20138 other isoform, or with tags, fused parts or gaps F21Q F21Q): as the sequence (P20138 other isoform, or with tags, fused parts or gaps N20K N20K) above, with K9N, F10Q counted along it
Sequence of CD33 variant W22R (recombinant, biotinylated) (P20138 other isoform, or with tags, fused parts or gaps W22R W22R): as the sequence (P20138 other isoform, or with tags, fused parts or gaps N20K N20K) above, with K9N, W11R counted along it

% WT binding [1]: 23.5 % WT binding
% WT binding [2]: 0 % WT binding
% WT binding [3]: 93.1 % WT binding
% WT binding [4]: 0 % WT binding
% WT binding [5]: 0 % WT binding
% WT binding [6]: 0 % WT binding
% WT binding [7]: 0 % WT binding
% WT binding [8]: 0 % WT binding
% WT binding [9]: 6.62 % WT binding
% WT binding [10]: 0 % WT binding
% WT binding [11]: 0 % WT binding
% WT binding [12]: 0 % WT binding
% WT binding [13]: 6.42 % WT binding
% WT binding [14]: 58.5 % WT binding
% WT binding [15]: 0 % WT binding
% WT binding [16]: 5.39 % WT binding
% WT binding [17]: 73.9 % WT binding
% WT binding [18]: 5.25 % WT binding
% WT binding [19]: 100 % WT binding
% WT binding [20]: 0.86 % WT binding
% WT binding [21]: 0 % WT binding
% WT binding [22]: 128 % WT binding
% WT binding [23]: 0 % WT binding
% WT binding [24]: 0 % WT binding
B1: Refmab #3 (antibody, human IgG1, V domains shown)
VH: QVQLVQSGAEVKKPGSSVKVSCKASGYTFTDYNMHWVRQAPGQGLEWIGYIYPYNGGTGYNQKFKSKATITADESTNTAYMELSSLRSEDTAVYYCARGRPAMDYWGQGTLVTVSS
VL: DIQMTQSPSSLSASVGDRVTITCRASESVDNYGISFMNWFQQKPGKAPKLLIYAASNQGSGVPSRFSGSGSGTDFTLTISSLQPDDFATYYCQQSKEVPWTFGQGTKVEIK
